The text below walks through data of US20060148030A1, “Nuclear receptor err y 3” (FUJISAWA PHARMACEUTICAL CO., LTD, priority 2002, published 2006).

For this experiment, the target named is T1, RARα (Homo sapiens, UniProt P10276).
T1 construct: expressed in transfected cells; host or cells: CV-1 (African green monkey kidney)
T1 sequence (P10276 1-462): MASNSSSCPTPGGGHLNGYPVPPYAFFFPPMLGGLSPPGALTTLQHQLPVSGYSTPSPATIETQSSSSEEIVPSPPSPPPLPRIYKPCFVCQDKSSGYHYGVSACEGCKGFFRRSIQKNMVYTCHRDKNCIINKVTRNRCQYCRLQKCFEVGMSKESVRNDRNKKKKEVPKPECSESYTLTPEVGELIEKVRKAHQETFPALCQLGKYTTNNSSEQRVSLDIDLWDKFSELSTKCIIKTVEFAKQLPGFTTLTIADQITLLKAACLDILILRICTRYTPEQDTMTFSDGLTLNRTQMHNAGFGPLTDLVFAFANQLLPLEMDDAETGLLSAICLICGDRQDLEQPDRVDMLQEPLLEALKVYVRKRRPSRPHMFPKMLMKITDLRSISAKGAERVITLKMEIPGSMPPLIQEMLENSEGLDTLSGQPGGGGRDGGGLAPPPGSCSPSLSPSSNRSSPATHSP
T1 sequence (P19793 1-462 partner): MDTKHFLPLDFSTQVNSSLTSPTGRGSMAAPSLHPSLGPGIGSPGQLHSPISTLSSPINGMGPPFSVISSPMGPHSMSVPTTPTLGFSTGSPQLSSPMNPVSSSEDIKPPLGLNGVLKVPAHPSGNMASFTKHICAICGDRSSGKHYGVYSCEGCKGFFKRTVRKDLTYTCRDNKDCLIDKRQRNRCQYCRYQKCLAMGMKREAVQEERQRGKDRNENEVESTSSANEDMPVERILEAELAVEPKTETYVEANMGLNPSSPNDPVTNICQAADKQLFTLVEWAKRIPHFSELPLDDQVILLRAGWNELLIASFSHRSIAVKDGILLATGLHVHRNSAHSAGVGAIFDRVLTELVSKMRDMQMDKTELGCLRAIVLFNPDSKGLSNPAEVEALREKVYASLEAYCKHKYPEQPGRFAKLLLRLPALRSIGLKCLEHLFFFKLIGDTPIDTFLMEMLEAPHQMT
Description: Reporter gene assay, ERRγ3 coexisted with RARα, pGVP2-RARE in CV-1 cells. It counts as cell-based. As to conditions: 5×10^−8 M retinoic acid, FIG. 22. From the text:
The reporter gene assay was used to evaluate the effect of ligand 4-hydroxytamoxifen and 5×10^−8 M of retinoic acid on the function of ERRγ3 in enhancing the transcriptional activation function of retinoic acid receptor (RAR) (FIG. 22). RAR is a nuclear receptor belonging to group B of subfamily 1.
CV-1 cells (a cell line derived from the kidney of African green monkey) were used as hosts in the reporter gene assay. The luciferase reporter plasmid pGVP2-RARE and the expression plasmids for ERRγ3 and RARα: pcDNA3.1-ERRγ3 and pcDNA3.1-RARα, respectively, or alternatively the expression plasmid for both nuclear receptors, were transfected into the host cells. […]
Transfection was performed as follows: CV-1 cells were resuspended in DMEM supplemented with 10% fetal bovine serum, 2000 U/l of penicillin G, and 100 mg/l of streptomycin to a concentration of 2×10^5 cells/2.5 ml. […] 1 μg of each of the expression plasmids for the transcription factors, the luciferase reporter plasmid, and another luciferase reporter plasmid used for normalization of the measured values (pRL-TK), were dissolved in Opti-MEM (Gibco BRL), to a total of 150 μl. […] Luciferase activity was measured using the Dual-Luciferase™ Reporter Assay System (Promega). […] The protocol for measurement was as follows: 50 μl of Luciferase Assay Reagent II was added to each well, stirred for 0.3 seconds, and measured for one second. […]

B1: ERRγ3: novel ERRγ isoform, nuclear receptor protein of 396 amino acids (SEQ ID NO: 2) lacking part of the DNA binding domain (protein, listed as Homo sapiens)
chain: MSNKDRHIDSSCSSFIKTEPSSPASLTDSVNHHSPGGSSDASGSYSSTMNGHQNGLDSPPLYPSAPILGGSGPVRKLYDDCSSTIVEDPQTKCEYMLNSMPKRLCLVCGDIASGYHYGVASCEACKAFFKRTIQGVRLDRVRGGRQKYKRRIDAENSPYLNPQLAQPAKKPYNKIVSHLLVAEPEKIYAMPDPTVPDSDIKALTTLCDLADRELVVIIGWAKHIPGFSTLSLADQMSLLQSAWMEILILGVVYRSLSFEDELVYADDYIMDEDQSKLAGLLDLNNAILQLVKKYKSMKLEKEEFVTLKAIALANSDSMHIEDVEAVQKLQDVLHEALQDYEAGQHMEDPRRAGKMLMTLPLLRQTSTKAVQHFYNIKLEGKVPMHKLFLEMLEAKV
In the case of B1, the “modifying effect on the transcriptional stimulation activity of RAR” value was “did not show a significant modifying effect”.
